The chains are these.
B4: Glucose-6-phosphate dehydrogenase (G6PDH) from Leuconostoc mesenteroides, aggregated (enzyme, UniProt P11411 1-486, looked up)
chain: MVSEIKTLVTFFGGTGDLAKRKLYPSVFNLYKKGYLQKHFAIVGTARQALNDDEFKQLVRDSIKDFTDDQAQAEAFIEHFSYRAHDVTDAASYAVLKEAIEEAADKFDIDGNRIFYMSVAPRFFGTIAKYLKSEGLLADTGYNRLMIEKPFGTSYDTAAELQNDLENAFDDNQLFRIDHYLGKEMVQNIAALRFGNPIFDAAWNKDYIKNVQVTLSEVLGVEERAGYYDTAGALLDMIQNHTMQIVGWLAMEKPESFTDKDIRAAKNAAFNALKIYDEAEVNKYFVRAQYGAGDSADFKPYLEELDVPADSKNNTFIAGELQFDLPRWEGVPFYVRSGKRLAAKQTRVDIVFKAGTFNFGSEQEAQEAVLSIIIDPKGAIELKLNAKSVEDAFNTRTIDLGWTVSDEDKKNTPEPYERMIHDTMNGDGSNFADWNGVSIAWKFVDAISAVYTADKAPLETYKSGSMGPEASDKLLAANGDAWVFKG
notes: glucose-6-phosphate dehydrogenase, Leuconostoc mesenteroides; Thermally denatured and aggregated before the co-sedimentation assay; native G6PDH served as the control that was subtracted; also called G6PDH aggregates; source: bought: Worthington

Data set [1] deals with the molecule itself. Put plainly: cross-linking; 2 µM protein, 0.005% glutaraldehyde, 15 min at 4 °C in 20 mM Hepes pH 7.6, 50 mM KCl, 5 mM MgCl2, 2 mM DTT; SDS-PAGE, Coomassie; monomer, dimer and oligomer bands.
For data set [2], the target named is B4. The data set is described as follows: co-sedimentation; 2 µM Hsc70, 1 µM J-domain protein (DNAJB1, DNAJA2ΔCD or DNAJA2wt), 0.4 µM Apg2, 0.4 µM aggregated or native G6PDH; pellets on SDS-PAGE, band intensities; amounts in pellets with native G6PDH subtracted. The following applies: both partners purified.
Data set [3] concerns the molecule itself. Put plainly: static light scattering; 15 µM DNAJA2 in refolding buffer (20 mM Hepes-KOH pH 7.6, 50 mM KCl, 5 mM MgCl2, 2 mM DTT) heated to 40 °C and cooled back to 25 °C; oligomers to dimers.
The target of data set [4] is T1, Hsc70wt (human, UniProt P11142 1-646).
T1 construct: Hsc70 (HSPA8), the constitutively expressed Hsp70 isoform, cDNA from Addgene; also called HSPA8
T1 sequence (P11142 whole entry, canonical isoform): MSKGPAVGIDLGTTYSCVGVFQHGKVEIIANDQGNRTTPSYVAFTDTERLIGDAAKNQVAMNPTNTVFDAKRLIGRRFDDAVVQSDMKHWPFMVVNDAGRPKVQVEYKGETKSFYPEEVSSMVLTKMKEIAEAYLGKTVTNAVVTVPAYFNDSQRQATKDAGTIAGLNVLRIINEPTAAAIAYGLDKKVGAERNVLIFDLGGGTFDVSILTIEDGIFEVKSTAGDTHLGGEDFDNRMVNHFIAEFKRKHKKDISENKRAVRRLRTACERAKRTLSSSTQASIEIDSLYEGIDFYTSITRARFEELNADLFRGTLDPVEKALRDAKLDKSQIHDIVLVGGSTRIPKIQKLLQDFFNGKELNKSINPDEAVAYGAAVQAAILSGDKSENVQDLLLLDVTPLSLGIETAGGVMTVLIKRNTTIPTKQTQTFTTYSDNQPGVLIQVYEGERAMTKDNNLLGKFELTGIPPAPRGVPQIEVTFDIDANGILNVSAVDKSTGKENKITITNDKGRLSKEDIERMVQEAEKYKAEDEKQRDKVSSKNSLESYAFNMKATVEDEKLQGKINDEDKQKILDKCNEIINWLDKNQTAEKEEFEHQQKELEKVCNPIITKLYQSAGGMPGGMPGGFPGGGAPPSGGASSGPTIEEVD
The data set is described as follows: co-sedimentation; 2 µM Hsc70, 1 µM J-domain protein (DNAJB1, DNAJA2ΔCD or DNAJA2wt), 0.4 µM Apg2, 0.4 µM aggregated or native G6PDH; pellets on SDS-PAGE, band intensities; amounts in pellets with native G6PDH subtracted. The following applies: both partners purified.

Data set [5] deals with the molecule itself. Put plainly: negative-stain electron microscopy; samples on carbon-coated grids, 2% uranyl acetate; 15 µM protein; tubular oligomers of dimers.
Data set [6] deals with the molecule itself. Put plainly: dynamic light scattering; 30 µM protein in 20 mM Hepes-KOH pH 7.6, 50 mM KCl, 2 mM DTT; volume-based size distributions; the wt also with 300 mM NaCl, 5% 1,6-hexanediol or at 40 °C, which shift it to smaller particles; self-association: dimer and dimers to larger oligomers.

B1: DNAJA2LQ (natural protein)
chain: not shown
notes: DNAJA2, human, with L135 and Q136 in the CTDI mutated to Glu
B1: the “stoichiometry N” value in data set [1] is ≤ 2.

B2: DNAJA2ΔCD (domain or fragment)
chain: not shown
notes: DNAJA2, human, lacking the disordered C-terminal domain (deletion of residues 361 to 412, V361 to Q412)
Consider B2, for which the binding result in data set [2] is recorded as “binds”. Also, the “stoichiometry N” value in data set [1] was found to be 2.

B3: DNAJA2wt (natural protein)
chain: not shown
notes: DNAJA2, human class A J-domain protein; last residue Q412; Dimers that assemble into tubular oligomers; For cryo-EM and XL-MS the sample was cross-linked with BS3; The Ni-NTA-Nanogold is said to label Hsc70 specifically, so the His6-SUMO tag was probably removed; also called DnaJ2A
Regarding B3, the “fold reduction of the aggregate-bound amount against DNAJB1” value in data set [2] is ~2 fold. Further, the “t1/2 of the temperature-induced dissociation of the oligomers (40 °C)” value in data set [3] worked out at 2.3 min.

With B4, the binding result in data set [4] is recorded as “binds”.

B5: DNAJA2ΔG/FR (natural protein)
chain: not shown
notes: DNAJA2, human, lacking the glycine/phenylalanine-rich region (deletion of residues 77 to 101); For cryo-EM and XL-MS the sample was cross-linked with BS3; also called DnaJA2∆G/FR; DnJA2ΔG/FR
For B5, the binding result in data set [5] is “binds”.

B6: DNAJA2ΔZFLR (natural protein)
chain: not shown
notes: DNAJA2, human, lacking the Zn-finger-like region (deletion of residues 141 to 209)
In the case of B6, the “stoichiometry N” value was 2 in data set [6] and ≤ 2 in data set [1].

As usually defined, the stoichiometry N is the number of molecules, sites or subunits per partner or assembly.
